Assays:
[1] = target: cynomolgus monkey CD200R1 on cells (cynomolgus monkey); test: flow cytometry on cynomolgus monkey CD4+ T cells
[2] = target: cynomolgus monkey CD200R1 on cells (cynomolgus monkey); test: flow cytometry, biotinylated antibody on cynomolgus monkey CD4+ T cells (PBMC), streptavidin-PE, MFI; monkey #0013
[3] = target: cynomolgus monkey CD200R1 on cells (cynomolgus monkey); test: flow cytometry, biotinylated antibody on cynomolgus monkey CD4+ T cells (PBMC), streptavidin-PE, MFI; monkey #143
[4] = target: cynomolgus monkey CD200R1 on cells (cynomolgus monkey); test: cell-surface blocking, MfCD200-Fc on K562 cells expressing MfCD200R1
[5] = target: cynomolgus monkey CD200R1 on cells (cynomolgus monkey); test: flow cytometry, biotinylated antibody on cynomolgus monkey CD4+ T cells (PBMC), streptavidin-PE, MFI; monkey #0023
[6] = target: cynomolgus monkey CD200R1 on cells (cynomolgus monkey); test: cell-surface binding, cynomolgus CD4+ T cells
[7] = target: human CD200R1 on cells (human) (UniProt Q8TD46); test: flow cytometry, blocking: U937 cells stably expressing hu-CD200R1 incubated with the antibody, then with 55 nM huCD200-Fc-Flag, detected with anti-Flag PE (MFI)
[8] = target: human CD200R1 on cells (human) (UniProt Q8TD46); test: flow cytometry, biotinylated antibody on human CD8+ T cells (pan T cells of a healthy donor), streptavidin-PE, geometric mean; unit from the axis log M
[9] = target: human CD200R1 on cells (human) (UniProt Q8TD46); test: cell-based or functional assay
[10] = target: human CD200R1 on cells (human) (UniProt Q8TD46); test: flow cytometry, biotinylated antibody on human CD4+ T cells (pan T cells of a healthy donor), streptavidin-PE, geometric mean; unit from the axis Log M

Binder	EC50 [1]	EC50 (read off the curve) [2]	EC50 (read off the curve) [3]	IC50 [4]	EC50 (read off the curve) [5]	EC50 [6]	IC50 [7]	EC50 [8]	pDok2 induction, western blot, U937 cells expressing CD200R1 [9]	EC50 [10]
h10F6.V1 (antibody, IgG1, V domains shown) VH: EVQLQESGPGLVKPSETLSLTCTVSGFSLTNYRVSWVRQPPGKGLEWLGVMYAGGGTNYNSVFKSRLTISKDNSKNQVSLKLSSVTAADTAVYYCARERPLTGVMDNWGQGTLVTVSS VL: DIVLTQSPDSLAVSLGERATINCRASESVDYSGNSFMHWFQQKPGQPPKLLIYRASNLESGIPDRFSGSGSRTDFTLTISSLQAEDVAVYYCHQSNWDPPTFGGGTKVEIKR	0.34 to 1.54 nM	1 nM	1 nM	0.5 nM	0.9 nM	1.3 nM	–	–	–	–
h22.1 (humanized 22.1 IgG) (antibody, V domains shown) VH: EVQLVQSGAEVKKPGASVKVSCKASGYTFTSYVMFWVRQAPGQRLEWIGYINPYNDDTKYNEKFKGRATLTSDKSASTAYMELSSLRSEDTAVYYCAREDYYGSRFVYWGQGTLVTVSS VL: DIQLTQSPSSLSASVGDRVTITCRASKSVSTSGYSYMHWYQQKPGKPPKLLIYLASNLESGVPSRFSGSGSGTDFTLTISSLQPEDFATYYCQHNRELLTFGGGTKVEIKR	–	–	–	–	–	–	1.8 nM	1.91 nM	5.6 nM	3.04 nM

Reference: patent US20260022171A1
